Results taken from the supplement of paper PMC10567573.
± gives the standard deviation.

Test: protein stability index of a GFP-peptide fusion (GPS, HEK-293T) (PSI 1-6); higher = more stable
[1] = treatment: DMSO, c terminus: a fixed tail appended
[2] = treatment: MLN4924 1 uM, 8 h, c terminus: a fixed tail appended
[3] = treatment: DMSO, c terminus: native
[4] = treatment: MLN4924 1 uM, 8 h, c terminus: native
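Also: 24-mer peptide tiles fused after GFP, lentivirally expressed, FACS-sorted into six equal bins by GFP/DsRed ratio, decoded by Illumina sequencing, PSI is the read-weighted mean bin number.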

| Sequence | protein stability index [1] | protein stability index [2] | protein stability index [3] | protein stability index [4] |
| --- | --- | --- | --- | --- |
| RMLSKENKILQVFWEEHKASLGRE [CBY2] | 2.96 ± 0.39 | 3.35 ± 0.074 | – | – |
| RNGGSLADAISENYRIMSYFKEAE [WEE1] | 3.08 ± 0.36 | 3.2 ± 0.28 | – | – |
| RPEITSRAINLLFDIARIERCNQL [ZER1] | 2.47 ± 0.55 | 2.35 ± 0.59 | – | – |
| RPQGPQLRQQQHKQNKQVLGYCLL [DNAJC4] | 2.52 ± 0.22 | 2.38 ± 0.23 | – | – |
| RPQLPQVLQHVRLPLLSPKFLVGT [KLHL20] | 2.8 ± 0.12 | 2.58 ± 0.26 | – | – |
| RQAIFPDTWTLTEEHGLQQERPRP [PXN] | 4.43 ± 0.25 | 4.25 ± 0.28 | – | – |
| RQRLQDISSLPLPQSLKNYLQYQ [SPSB4] | – | – | 3.65 ± 0.074 | 3.65 ± 0.31 |
| RQWTVSDWGPCSGSCGQGRTIRHV [ADAMTSL2] | 2.15 ± 0.23 | 2.826 ± 0.025 | – | – |
| RRCRRCVCALCPVLGAHRGHPVGL [TRIM14] | 2.54 ± 0.33 | 2.59 ± 0.38 | – | – |
| RRFGAVACGVAMELYVFGGVRSRE [GAN] | 3.04 ± 0.79 | 2.26 ± 0.15 | – | – |
| RRLLVKDPKRRMTIAQSLEHSWIK [DAPK3] | 2.67 ± 0.25 | 2.82 ± 0.4 | – | – |
| RRNSSSSMSSRLSIYDNVPGSILY [DLC1] | 2.75 ± 0.2 | 2.87 ± 0.45 | – | – |
| RRQAVAWLVAMHKAAKLLYESRDQ [ZFYVE21] | 2.29 ± 0.54 | 2.36 ± 0.49 | – | – |
| RRSMKRKALFTCPFNGDCRITKDN [VDR] | 3.29 ± 0.45 | 3.48 ± 0.3 | – | – |
| RSLNVFVKEDDKLIFHRHPVAQST [SPSB1] | 3.15 ± 0.18 | 3.36 ± 0.26 | – | – |
| RSQHARKETEFLRLKRTRLGLDDF [STK38L] | 2.95 ± 0.28 | 3.04 ± 0.44 | – | – |
| RSVQNFRFFASSSLHHTSECTQMD [ALDH8A1] | 3.14 ± 0.24 | 3.29 ± 0.33 | – | – |
| RTERVEQAFRAIDRGDYYLEGYRD [PCMTD1] | 3.77 ± 0.17 | 3.82 ± 0.17 | – | – |
| RTIYHMFIAGLCVFIISTLAIDFI [SOAT2] | 3.14 ± 0.56 | 2.96 ± 0.67 | – | – |
| RTSLQYGIMCLKRLNYDRKELEKR [PPFIA4] | 2.88 ± 0.45 | 2.83 ± 0.29 | – | – |
| RVGQLQEALNERHSIINALKAKLQ [LRRC45] | 2.45 ± 0.43 | 2.46 ± 0.3 | – | – |
| RVQKTSKELEDMNQKLFDLRGKFK [TNNI2] | 3.94 ± 0.25 | 4.03 ± 0.3 | – | – |
| RVVHWYFKLLDKNSSGDIGKKEIK [SMOC2] | 2.46 ± 0.97 | 2.41 ± 0.4 | – | – |

| Sequence | protein stability index [1] | protein stability index [2] | protein stability index [3] | protein stability index [4] |
| --- | --- | --- | --- | --- |
| RWFRSVDWEAVPQRKLKPPIVPKI [PRKX] | 2.33 ± 0.26 | 2.44 ± 0.29 | – | – |
| RWSPAQEESFRQMVVIHKEIPTGK [ZNF232] | 3.87 ± 0.42 | 3.99 ± 0.17 | – | – |
| RYRGLPAPGPSPADKKRSGKKKIS [WAS] | 4.76 ± 0.3 | 4.71 ± 0.21 | – | – |
| SAHFTSGPLVPRLAGMANHGSPQL [TBX5] | 3.35 ± 0.21 | 3.5 ± 0.13 | – | – |
| SALEDQGSNPSSSNSSQDSLHKGA [PPFIA4] | 5.48 ± 0.14 | 5.49 ± 0.23 | – | – |
| SALERLETKLHLLRQEMVNLRATD [LURAP1L] | 2.73 ± 0.22 | 2.79 ± 0.58 | – | – |
| SALPFITYLENKGHRYPCFFNTLH [POP5] | 2.34 ± 0.46 | 2.19 ± 0.42 | – | – |
| SALTEGAKEEGGEEVAKAVLEQEE [EPB41L3] | 5.63 ± 0.3 | 5.54 ± 0.41 | – | – |
| SANFHSLDDIYYFGGQNAHNQIAI [FUT8] | 2.4 ± 0.72 | 2.3 ± 0.24 | – | – |
| SASRKSAEQLRIELNAEKFKNSLL [WEE1] | 3.2 ± 0.3 | 3.29 ± 0.38 | – | – |
| SASSDEPYARIQQSRRQCHAEEDQ [SMIM2] | 5.49 ± 0.17 | 5.63 ± 0.2 | – | – |
| SAVAMYMLYEKQKQQNVAHCMLVS [ZBED1] | 2.92 ± 0.54 | 2.74 ± 0.53 | – | – |
| SAVVQLYAADRNCMWSKKCSGVAC [WASL] | 2.36 ± 0.23 | 2.41 ± 0.42 | – | – |
| SCIMENGHQPGTGPGDGPPEIAQN [SMTNL2] | 4.95 ± 0.28 | 4.99 ± 0.074 | – | – |
| SCSSEDNLSLVCLPRSEDDDCDDD [DRICH1] | 5.59 ± 0.17 | 5.66 ± 0.15 | – | – |
| SDELSWIIELLEKDGMAFQEALDP [ELF3] | 2.62 ± 0.34 | 3.02 ± 0.26 | – | – |
| SDLLDEKEIAKNLIQPINHTTLQC [FEM1C] | 3.83 ± 0.25 | 4.03 ± 0.39 | – | – |
| SDLLSEFKKHDADKVGLITLSDWA [PPEF2] | 3.35 ± 0.47 | 3.44 ± 0.27 | – | – |
| SDTIPYLKKFLYNFDNPWNFQNIP [MIA2] | 2.28 ± 0.84 | 2.5 ± 0.59 | – | – |
| SEARLSQRDLSPTAEDAELSDFEE [FCHSD1] | 5.44 ± 0.38 | 5.53 ± 0.39 | – | – |
| SEEAVREVHRLIEGKAPIISGVTK [TPPP] | 4.44 ± 0.29 | 4.72 ± 0.14 | – | – |
| SEQLVNFTGKAEMGGPFSYVYFFC [TMEM106C] | 2.69 ± 0.48 | 2.64 ± 0.45 | – | – |
| SERTDTAADGETTATEELEKTQDD [EPB41L3] | 5.63 ± 0.2 | 5.59 ± 0.21 | – | – |

| Sequence | protein stability index [1] | protein stability index [2] | protein stability index [3] | protein stability index [4] |
| --- | --- | --- | --- | --- |
| SFIIYLKNIVIADFVMSLTFPFKI [P2RY14] | 3.16 ± 0.29 | 3.22 ± 0.4 | – | – |
| SFQNMNSKRKAETWKKNRRQLAYS [STK38L] | 3.23 ± 0.33 | 3.33 ± 0.22 | – | – |
| SGRHILEDSCAELGESKEHMESRM [SDE2] | 4.64 ± 0.35 | 4.48 ± 0.23 | – | – |
| SGVGIDGEVLSYLELAQFHNAHQL [RHOBTB1] | 2.56 ± 0.33 | 2.67 ± 0.45 | – | – |
| SGVSDYDYLDLDKMSLYSEADSGY [TRIM9] | 4.14 ± 0.19 | 3.76 ± 0.46 | – | – |
| SHAAPGPSPDSWVPRPGTPQSPPS [FCHO1] | 5.12 ± 0.47 | 5.05 ± 0.62 | – | – |
| SIKMGKRNGLHLPEQVQNEIKSMK [NLN] | 4.02 ± 0.17 | 3.87 ± 0.55 | – | – |
| SILFGHENRVSTLRVSPDGTAFCS [GNB5] | 2.88 ± 0.41 | 3.02 ± 0.13 | – | – |
| SIRDANLYVSGLPKTMSQKEMEQL [ELAVL3] | 4.4 ± 0.061 | 4.27 ± 0.2 | – | – |
| SISDVKFSHSGRYIMTRDYLTVKV [PPP2R2B] | 2.37 ± 0.47 | 2.52 ± 0.57 | – | – |
| SISEKLSSTNFAMKRDVQEGQARC [C8orf76] | 4.41 ± 0.23 | 4.29 ± 0.22 | – | – |
| SIVILDNSPGAYRSHPDNAIPIKS [CTDNEP1] | 2.82 ± 0.27 | 2.91 ± 0.57 | – | – |
| SKPWHWPINYQGLRFSGVNDTDFR [POMT2] | 2.37 ± 0.17 | 2.52 ± 0.26 | – | – |
| SLALGDLIYVVIDLPINVFKLLAG [EDNRA] | 2.59 ± 1 | 3.28 ± 0.54 | – | – |
| SLCTHLIYAFAGMTNHQLSTTEWN [CHIT1] | 3.43 ± 0.33 | 3.27 ± 0.38 | – | – |
| SLFARAMQVLVTAISPGRFPEALD [ANKRD9] | 3.04 ± 0.31 | 2.8 ± 0.54 | – | – |
| SLGLSHSTDIGALMYPSYTFSGDV [MMP1] | 3.15 ± 0.4 | 3.19 ± 0.46 | – | – |
| SLGVPGSVGGVPGGTGSGDGNKIF [ZBTB22] | 4.38 ± 0.26 | 4.3 ± 0.22 | – | – |
| SLHDGSDGLDGISVGSYLDTLADD [LURAP1L] | 5 ± 0.17 | 4.93 ± 0.25 | – | – |
| SLIILHLSGATKKGTEKQTTSETQ [NETO1] | 2.35 ± 0.26 | 2.27 ± 0.56 | – | – |
| SLIRKHAQTFIALCATDFKFAMYP [CCND2] | 3.01 ± 0.18 | 2.97 ± 0.51 | – | – |
| SLRQKQPERLCSGPGIVGNVLVDP [GMPPB] | 3.65 ± 0.2 | 3.46 ± 0.15 | – | – |
| SLTVPLLGAMMLLESPIDPQPLSF [APMAP] | 2.46 ± 0.56 | 2.81 ± 0.51 | – | – |

| Sequence | protein stability index [1] | protein stability index [2] | protein stability index [3] | protein stability index [4] |
| --- | --- | --- | --- | --- |
| SMVDLTSVTLEDVTPKKSPPPKTN [FAN1] | 5.06 ± 0.12 | 4.9 ± 0.27 | – | – |
| SNHSAQDSAVENLLLLSKAKLVPS [IKZF1] | 3.81 ± 0.22 | 3.95 ± 0.32 | – | – |
| SNIKFCSFHPLQYIGFYGKETTNT [PDS5B] | 2.1 ± 0.47 | 2.29 ± 0.16 | – | – |
| SNKVQDSAPVETPRGKPPLNTRSQ [HMOX1] | 5.21 ± 0.38 | 5.26 ± 0.27 | – | – |
| SPESGLEVRDRMLLKITIPNAFIG [DVL3] | 2.3 ± 0.15 | 2.24 ± 0.34 | – | – |
| SPIKLSPTSPVYRGSSSGPSSPAR [MTUS2] | 4.34 ± 0.21 | 4.39 ± 0.2 | – | – |
| SPNTPQPVPEQSALCQGLYFHINQ [FAM104A] | 3 ± 0.15 | 3.16 ± 0.33 | – | – |
| SPPVDLFATASAAVPVSTSKPSSD [SNAP91] | 5.31 ± 0.12 | 5.33 ± 0.17 | – | – |
| SPSCPEEALAATWEQPWASEVFGP [PXN] | 3.62 ± 0.24 | 3.63 ± 0.14 | – | – |
| SPSYGRSRSRSRSRSRSRSRSNSR [SRSF1] | 5.39 ± 0.47 | 5.43 ± 0.26 | – | – |
| SRGGTRGWLPSHEGHLDDGGYTPD [RBMY1A1] | 4.73 ± 0.29 | 4.75 ± 0.24 | – | – |
| SRGLHAWEISWPLEQRGTHAVVGV [SPSB2] | 2.43 ± 0.4 | 2.17 ± 0.44 | – | – |
| SRHCPQLPPPCAALWCSGHLNGHA [ADAMTS4] | 2.48 ± 0.3 | 2.48 ± 0.21 | – | – |
| SRIKVLETSYQQREERLRRENEEL [FBF1] | 4.9 ± 0.18 | 5.07 ± 0.26 | – | – |
| SRKPSLKGNREDSARMSAGLPGPE [PLEKHN1] | 4.85 ± 0.35 | 4.87 ± 0.2 | – | – |
| SRLLIFPLYICCNFLYISPEKKN [GMCL1] | – | – | 2.97 ± 0.27 | 2.71 ± 0.43 |
| SRRASESSLSSESSESSDAGLCMD [CDC25B] | 5.06 ± 0.39 | 5.33 ± 0.18 | – | – |
| SSAIEVIMLRSNESFTMDDMSWTC [VDR] | 2.6 ± 0.53 | 2.29 ± 0.38 | – | – |
| SSALHLSKGMSIFLDILRRADKND [NECAB1] | 2.29 ± 0.13 | 2.6 ± 0.31 | – | – |
| SSEASQLEDAAGGDSASEEKSGSA [FBXO34] | 5.61 ± 0.17 | 5.55 ± 0.29 | – | – |
